# Results as given in paper PMC3470471 (Circulation research, 2012).
# Target: the molecule itself
# Assay: cross-linking
protein,measurement,value
myosin light chain 1 (rat cardiac myofibrils) (natural protein) not shown,stoichiometry N,2
